Columns and labels:
[1] = Partitioning of olivetolic acid between organic overlay and aqueous culture phase (shake flask, HPLC); assay type: physicochemical; details: YP + 2% galactose culture
Protocol: Precultures of LSC3-2 and LSC3-18 were inoculated from YPD streak plates and grown in 30 ml of YP+2% (w/v) glucose in baffled 250 ml shake flasks for approximately 18 hours overnight at 30° C. with 200 rpm shaking. Baffled 250 ml shake flasks containing 30 mL of YP+2% (w/v) galactose, 5 mL of IPM or diethyl sebacate, and 0.04% (w/v) hexanoic acid, were inoculated with 1 mL of preculture and grown for at 30° C. with 200 rpm shaking. After 24 and 48 hours, samples of cell culture broth plus overlay were sampled into microcentrifuge tubes and stored at −20° C. at least overnight. Sample tubes were thawed and aqueous sample and overlay sample were pipetted into plates for HPLC analysis. Overlay samples were diluted 1:1 v/v with methanol in the HPLC plate prior to analysis.
Total olivetol equivalents are defined as the concentration of olivetol in mg/L, plus the concentration of olivetolic acid in mg/L multiplied by the ratio of the molecular weight of olivetol to olivetolic acid.

[2] = Partitioning of divarinic acid and divarin into organic solvent overlays (96 well deepwell plate, HPLC); assay type: physicochemical; details: compared with olivetolic acid and olivetol
Protocol: Several monoester and one diester overlay candidate were compared to IPM for production of divarinic acid and divarin. LSC3-13 precultures were inoculated from YPD streak plates and grown in 300 μL Delft medium+0.79 g/L complete supplement mixture (CSM) (ForMedium, Norfolk, UK)+2% (w/v) glucose in round-bottom square well 96 well deepwell plates for approximately 18 hours overnight at 30° C. with 950 rpm shaking in an Infors plate shaker. 96 well deepwell plate wells containing 300 μL of Delft medium+CSM+2% (w/v) glucose, 60 μL of different overlay solvents, and 0.08% (w/v) butyric acid, were inoculated with 10 μL of preculture and grown for 30° C. with 950 rpm shaking. After 48 hours, the aqueous layer and overlay were sampled on a Bravo automated liquid handling platform (Agilent) and samples from the aqueous and organic overlay phases were subjected to HPLC analysis to measure divarinic acid and divarin production.

hexanoic acid = assay: Two plasmid screening system for relative AAE activity, hexanoic acid feeding; assay type: cell-based, Saccharomyces cerevisiae; details: average production, LSC3-297/pLOA-049 plus AAE plasmid, Delft medium pH 6.5, 3.44 mM hexanoic acid, 48 hours
From the text: (§1) In order to perform in vivo screening in Saccharomyces cerevisiae for acyl activating enzyme (AAE) variants with enhanced activity and/or expression, a two plasmid screening system was employed to generate an artificial bottleneck in AAE activity. This bottleneck was generated by natural copy number variation of the two plasmids, with a multi-copy 2 micron episomal plasmid, pLOA-049, harboring an olivetol synthase homologue from C. sativa (CsTKS) fused with a T2A self-cleaving peptide (Kearsey et al., FEBS J. 287:1511-1524, 2020) to a gene encoding olivetol acid cyclase from C. sativa (CsOAC), and a lower copy centromeric plasmid with an autonomous replicating sequence (CEN/ARS) harboring different acyl activating enzymes/acyl-CoA synthetases from different organisms. Markers employed on the 2 micron plasmid were orotidine-5′-phosphate decarboxylase from S. cerevisiae (URA3) and on the CEN/ARS plasmid, the multifunctional histidine biosynthesis gene HIS4 from S. cerevisiae. The cassette architecture in the plasmids was based on integrated cassettes in production strain LSC3-2, with a pGAL1-10 bidirectional promoter driving expression of CsTKS and CsOAC from pGAL1 with a S. cerevisiae CYC1 terminator, and insulated downstream of pGAL10 by a S. cerevisiae GRE3 terminator. Likewise on the CEN/ARS plasmid, a bidirectional pGAL1-10 promoter drives expression of CsAAE1 from pGAL10 with a S. cerevisiae GRE3 terminator, and is insulated downstream of pGAL1 by a S. cerevisiae CYC1 terminator.
(§2) To screen activity of AAE variants, first a CEN/ARS containing plasmid expressing AAEs co-transformed with the 2 micron plasmid expressing CsTKS translationally fused to CsOAC via the T2A self-cleaving peptide into strain LSC3-297 using the transformation method described by Gietz and Schiestl (Nat. Protocols 2:31-34, 2007). Double plasmid transformants were selected on YNB agar with 2% (w/v) glucose and CSM minus histidine and minus uracil (CSM-His-Ura, Sunrise Science Products) and grown in a 30° C. incubator for approximately 48 hours or at room temperature for approximately 72 hours. Individual colonies were picked into wells of 96 deepwell plates containing 0.3 mL per well of Delft medium with 2% (w/v) glucose and 0.75 g/L CSM-His-Ura. Delft medium base contains (per liter solution) 7.5 g ammonium sulfate, 14.4 g potassium phosphate monobasic (added from a 1 M stock solution adjusted to pH 6.5 with sodium hydroxide), 0.5 g magnesium sulfate heptahydrate, 3.6 mL of a trace metal solution (consisting of 130 g/L citric acid monohydrate, 0.574 g/L copper (II) sulfate pentahydrate, 8.07 g/L iron (III) chloride hexahydrate, 0.5 g/L boric acid, 0.333 g/L manganese (II) chloride, 0.2 g/L sodium molybdate, and 4.67 g/L zinc sulfate heptahydrate), and 1.0 ml of a vitamin solution (0.008 g/L biotin, 1.6 g/L calcium pantothenate, 0.008 g/L folic acid, 8 g/L myo-inositol, 1.6 g/L nicotinic acid, 0.8 g/L p-aminobenzoic acid, 1.6 g/L pyridoxal hydrochloride, 0.8 g/L riboflavin, 1.6 g/L thiamine hydrochloride, adjusted to pH […] with sodium hydroxide). Plates were grown for 16-24 hours at 30° C. in a plate shaker incubator maintained at 80% relative humidity and 900 rpm shaking (3 mm diameter throw). Ten microliters of preculture was then used to inoculate wells of 96 deepwell plates containing 0.3 mL per well of Delft medium with 2% (w/v) glucose, 0.75 g/L CSM-His-Ura, either 9.08 mM butyric acid or 3.44 mM hexanoic acid, and for divarin/divarinic acid, additionally 150 mM 2-(N-morpholino) ethanesulfonic acid (MES) at pH 5.5 and with the additional modification of the 1 M potassium phosphate monobasic stock in the Delft medium base also adjusted to pH 5.5 (for olivetol/olivetolic acid production from hexanoic acid, no MES was added and potassium phosphate monobasic solution used in the Delft medium base was at pH 6.5). […]

butyric acid = assay: Two plasmid screening system for relative AAE activity, butyric acid feeding; assay type: cell-based, Saccharomyces cerevisiae
From the text: as §1, §2

[3] = average production, LSC3-297/pLOA-049 plus AAE plasmid, Delft medium pH 5.5 with 150 mM MES, 9.08 mM butyric acid, 48 hours

Question: Which “partitioning between overlay and aqueous phase” value ([1]; IPM overlay) does the source give for `CCCCCc1cc(O)cc(O)c1C(=O)O` [OA, olivetolic acid] here?
Answer: The value was “partitioned between the IPM and aqueous phases”.

Question: And the “partitioning between overlay and aqueous phase” value ([1]; diethyl sebacate overlay)?
Answer: The value was “entirely partitioned into diethyl sebacate”.

Question: For `CCCc1cc(O)cc(O)c1` [divarin, 1,3-dihydroxy-5-propylbenzene], which “partitioning into monoester overlays” value [2] is on record?
Answer: Its value is “partition less effectively”.

Question: For `CCCc1cc(O)cc(O)c1C(=O)O` [divarinic acid, 2,4-dihydroxy-6-propylbenzoic acid], which “partitioning into monoester overlays” value [2] is on record?
Answer: Its value is “partition less effectively”.

B1: At4CLL6: 4-coumarate--CoA ligase-like 6 from Arabidopsis thaliana (Uniprot Q84P24), SEQ ID NO: 11 (protein, listed as Arabidopsis thaliana)
chain: MAATHLHIPPNPKTQTSHQNPPFWFSSKTGIYTSKFPSLHLPVDPNLDAVSALFSHKHHGDTALIDSLTGFSISHTELQIMVQSMAAGIYHVLGVRQGDVVSLVLPNSVYFPMIFLSLISLGAIVTTMNPSSSLGEIKKQVSECSVGLAFTSTENVEKLSSLGVSVISVSESYDFDSIRIENPKFYSIMKESFGFVPKPLIKQDDVAAIMYSSGTTGASKGVLLTHRNLIASMELFVRFEASQYEYPGSSNVYLAALPLCHIYGLSLFVMGLLSLGSTIVVMKRFDASDVVNVIERFKITHFPVVPPMLMALTKKAKGVCGEVFKSLKQVSSGAAPLSRKFIEDFLQTLPHVDLIQGYGMTESTAVGTRGFNSEKLSRYSSVGLLAPNMQAKVVDWSSGSFLPPGNRGELWIQGPGVMKGYLNNPKATQMSIVEDSWLRTGDIAYFDEDGYLFIVDRIKEIIKYKGFQIAPADLEAVLVSHPLIIDAAVTAAPNEECGEIPVAFVVRRQETTLSEEDVISYVASQVAPYRKVRKVVMVNSIPKSPTGKILRKELKRILTNSVS
Question: With B1 as the molecule, how does the Olivetol (hexanoic acid) read?
Answer: The Olivetol was 0.86 mg/L.

Question: And the Olivetolic acid (hexanoic acid)?
Answer: The Olivetolic acid was 0.91 mg/L.

Question: What about the Divarin (butyric acid; [3]) of the same molecule?
Answer: The Divarin was 5.96 mg/L.

Question: And the Divarinic acid (butyric acid; [3])?
Answer: The Divarinic acid was 5.24 mg/L.

Question: And the “activity as butyryl-CoA synthetases for divarin and divarinic acid production” value (butyric acid; over CsAAE1)?
Answer: The value was “several-fold activity improvements”.
